In patent publication US12319739 (F STAR DELTA, dated 2025):

T1: cMSLN-His-Avi (cynomolgus, single biotin on the Avi tag in the biotinylated form)
T1 construct: Monomeric; also called cyno MSLN-His-Avi; cMSLN-Avi-His
T1 chain: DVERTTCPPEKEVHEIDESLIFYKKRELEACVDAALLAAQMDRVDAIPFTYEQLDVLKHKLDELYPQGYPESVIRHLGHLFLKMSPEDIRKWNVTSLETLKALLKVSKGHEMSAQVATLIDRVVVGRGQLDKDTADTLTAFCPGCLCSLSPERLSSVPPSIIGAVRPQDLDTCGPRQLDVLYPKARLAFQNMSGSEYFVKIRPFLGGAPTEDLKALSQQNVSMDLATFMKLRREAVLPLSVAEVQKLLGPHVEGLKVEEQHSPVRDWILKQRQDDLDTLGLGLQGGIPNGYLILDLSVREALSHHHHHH


Key:
[1] = target: T2, endogenous cell surface human MSLN (human, UniProt Q13421 296-598); test: flow cytometry, NCI-H226 cells
T2 construct: whole, on cells; The cell line is named under assay; also called cell-surface MSLN on NCI-H226, OVCAR-3 and AsPC-1 cells
Description: (§1) To confirm binding to cell surface MSLN, mAb² listed in Table 9 were analysed for binding to endogenous cell surface MSLN on the human lung cancer cell line NCI-H226. In addition, and because MSLN can be found in blood in a shed soluble form, there is a risk that this circulating MSLN might affect exposure and ultimately potency of our mAb². To confirm that presence of soluble MSLN has minimal impact, additional binding experiments to NCI-H226 cells were performed in the presence of 20 nM soluble MSLN which is 10-20 times the level of soluble MSLN found to be of diagnostic value for defining malignant mesothelioma and lung cancer patients as MSLN positive (Cui et al., 2014). Briefly, NCI-H226 cells (ATCC CRL-5826) were harvested from T175 cell culture flasks using Accutase (Gibco, A11105-01).
(§2) In both cases, cells were centrifuged at 1200 rpm for 3 min and resuspended in ice cold FACS buffer made up of DPBS (Life Technologies, 14190169) and 1% BSA (Sigma-Aldrich, A7906) at 2×10⁶ cells/ml and 50 μl per well was seeded in a 96-well V-bottom plate (Costar, 3894). All antibodies tested were diluted in FACS buffer in 120 μl at a concentration range of 0.01-200 nM (4-fold dilutions). The NCI-H226 cells were then centrifuged, supernatant removed and cells resuspended in 100 μl of each mAb dilution and incubated at 4° C. for 45 min. Cells were washed twice by centrifugation with 150 μl FACS buffer, resuspended in 100 μl containing goat anti-human IgG (γ-chain specific) F(ab')2 fragment-R-Phycoerythrin antibody (Sigma, P8047) diluted 1:1000 in FACS buffer and incubated at 4° C. for 45 min. The cells were washed once with 150 μl FACS buffer and then with 150 μl DPBS, resuspended in 150 μl DPBS containing DAPI (Biotium, 40043) at 1:10.000 and read on the BDCantoII or iQue (Intellicyt).

hMSLN-His-Avi [2] = target: T3, hMSLN-His-Avi (human, UniProt Q13421 296-598, single biotin on the Avi tag in the biotinylated form); test: ratio of SPR KDs
T3 construct: Monomeric; also called human MSLN-His-Avi; hMSLN-Avi-His
Description: (§3) 7.1 Binding of CD137/MSLN mAb2 to Human MSLN Under Avid Conditions—Antigen Capture Method Binding of all mAb^2 to MSLN immobilised on a BIAcore chip was tested to determine the binding affinity to human MSLN under avid conditions, where a high concentration of immobilised antigen is available to allow the antibody to bind avidly. […] The association time was 5 min and the dissociation time was 10 min. Running buffer was HBS-EP (GE Healthcare BR100188). Flow cells were regenerated by injecting Glycine-HCl pH1.5 at a flow rate of 30 μl/min for 30 seconds. Data were analysed by double referencing against a flow cell which was intentionally left blank (no antigen coating). The binding kinetics were fitted with a 1:1 Langmuir model to generate binding association (k_a) and dissociation (k_d) rates. Equilibrium binding constants (K_D) were calculated by dividing the dissociation rate by the association rate for each sample. Data analysis was performed with BiaEvaluation software version 3.2.
(§4) The association time was 5 min and the dissociation time was 5 min. Running buffer was HBS-EP (GE Healthcare BR100188). Flow cells were regenerated by injecting Glycine-HCl pH2.1 at a flow rate of 30 μl/min for 15 seconds. The data was analysed as described in Example 7.1.

hMSLN-His-Avi [3] = target: T3, hMSLN-His-Avi; test: SPR, hMSLN-His-Avi immobilised ~100 RU, mAb2 injected
Description: as §3

hMSLN-His-Avi [4] = target: T3, hMSLN-His-Avi; test: SPR, mAb2 captured on Protein G, hMSLN-His-Avi in solution
Description: as §4

cMSLN-His-Avi = target: T1, cMSLN-His-Avi; test: SPR, mAb2 captured on Protein G, cMSLN-His-Avi in solution
Description: as §4

[5] = target: T2, endogenous cell surface human MSLN; test: flow cytometry, NCI-H226 cells + 20 nM soluble MSLN
Description: as §1, §2

[6] = target: T4, human CD137 on primary human CD8+ T cells (human, UniProt Q07011 24-255); test: cell-based or functional assay
[7] = target: T4, human CD137 on primary human CD8+ T …; test: cell-based or functional assay; remark: listed apart in the source
hMSLN-His-Avi [8] = target: T3, hMSLN-His-Avi; test: SPR, hMSLN-His-Avi in solution
hMSLN-His-Avi [9] = target: T3, hMSLN-His-Avi; test: SPR, hMSLN-His-Avi immobilised
hMSLN-His-Avi [10] = target: T3, hMSLN-His-Avi; test: ratio of SPR KDs; remark: listed apart in the source

T3 sequence (Q13421 other isoform, or with tags, fused parts or gaps): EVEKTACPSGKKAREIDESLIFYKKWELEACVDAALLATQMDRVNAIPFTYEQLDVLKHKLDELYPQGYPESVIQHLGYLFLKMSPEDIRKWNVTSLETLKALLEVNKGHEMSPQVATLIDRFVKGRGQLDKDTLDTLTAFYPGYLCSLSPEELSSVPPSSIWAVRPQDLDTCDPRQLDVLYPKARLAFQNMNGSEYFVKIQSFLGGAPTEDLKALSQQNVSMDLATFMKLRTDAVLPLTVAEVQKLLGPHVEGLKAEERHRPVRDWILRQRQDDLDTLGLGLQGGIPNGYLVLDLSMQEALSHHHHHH
T4 sequence (Q07011 24-255): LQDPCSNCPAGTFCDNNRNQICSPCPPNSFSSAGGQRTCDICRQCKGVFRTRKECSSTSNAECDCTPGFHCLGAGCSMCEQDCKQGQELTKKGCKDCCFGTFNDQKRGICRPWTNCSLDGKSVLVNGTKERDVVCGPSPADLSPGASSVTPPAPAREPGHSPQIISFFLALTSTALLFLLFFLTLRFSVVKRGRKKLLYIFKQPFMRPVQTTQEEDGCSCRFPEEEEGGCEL
T2 sequence (Q13421 other isoform, or with tags, fused parts or gaps limits assumed): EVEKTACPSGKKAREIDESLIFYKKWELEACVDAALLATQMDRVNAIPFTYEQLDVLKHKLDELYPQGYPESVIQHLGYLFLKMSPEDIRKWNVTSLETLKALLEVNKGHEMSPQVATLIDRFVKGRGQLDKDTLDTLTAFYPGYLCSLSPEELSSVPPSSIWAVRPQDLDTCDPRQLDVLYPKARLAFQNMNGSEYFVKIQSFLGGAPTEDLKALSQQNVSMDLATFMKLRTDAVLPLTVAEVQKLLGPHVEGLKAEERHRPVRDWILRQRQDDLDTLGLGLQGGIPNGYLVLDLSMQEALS

Binder	EC50 [1]	Emax (MFI) [1]	KD ratio in solution/immobilised human MSLN (hMSLN-His-Avi [2])	Kd (hMSLN-His-Avi [3])	Kd (hMSLN-His-Avi [4])	Kd (cMSLN-His-Avi)	EC50 [5]	Emax (MFI) [5]	Emax (IL-2 pg/ml), NCI-H226 co-culture, Donor A [6]	Emax (IL-2 pg/ml), NCI-H226 co-culture, Donor B [6]	IL-2 release EC50, NCI-H226 co-culture, Donor A [6]	IL-2 release EC50, NCI-H226 co-culture, Donor B [6]	fold change of IL-2 EC50 with 20 nM sMSLN against none, NCI-H226 co-culture [7]	Kd (hMSLN-His-Avi [8])	Kd (hMSLN-His-Avi [9])	ratio of KD in solution/immobilised (hMSLN-His-Avi [10])	IL-2 release EC50, CD8+ T cell assay [7]
FS22-172-003-AA/FS28-256-021 (bispecific antibody, human IgG1, kappa, L234A L235A, V domains shown, IgG1 mAb^2 with LALA) VH: EVQLLESGGGLVQPGGSLRLSCAASGFTFTHTYMSWVRQAPGKGLEWVSNISPTYSTTNYADSVKGRFTISRDNNKNTLYLQMNSLRAEDTAVYYCARYNAYHAALDYWGQGTLVTVSS VL: EIVLTQSPGTLSLSPGERATLSCRASQSVSSSYLAWYQQKPGQAPRLLIYGASSRATGIPDRFSGSGSGTDFTLTISRLEPEDFAVYYCQQHNQYPNTFGQGTKVEIKR	4.02 nM	689000 MFI	9	2.3 nM	19.6 nM	14.2 nM	9.49 nM	774000 MFI	1780 pg/mL	1000 pg/mL	0.06 nM	0.04 nM					
FS22-172-003-AA/FS28-256-027 (bispecific antibody, human IgG1, kappa, L234A L235A, V domains shown, IgG1 mAb^2 with LALA) VH: EVQLLESGGGLVQPGGSLRLSCAASGFTFTHTYMSWVRQAPGKGLEWVSNISPTYSTTNYADSVKGRFTISRDNNKNTLYLQMNSLRAEDTAVYYCARYNAYHAALDYWGQGTLVTVSS VL: EIVLTQSPGTLSLSPGERATLSCRASQSVSSSYLAWYQQKPGQAPRLLIYGASSRATGIPDRFSGSGSGTDFTLTISRLEPEDFAVYYCQQTVPYPYTFGQGTKVEIKR	0.613 nM	801000 MFI	7	0.78 nM	5.84 nM	1.06 nM	2.31 nM	686000 MFI	2110 pg/mL		0.05 nM		6.6 fold				
FS22-172-003-AA/FS28-256-026 (bispecific antibody, human IgG1, kappa, L234A L235A, V domains shown, IgG1 mAb^2 with LALA) VH: EVQLLESGGGLVQPGGSLRLSCAASGFTFTQTYMSWVRQAPGKGLEWVSNISPTYSTTNYADSVKGRFTISRDNSKNTLYLQMNSLRAEDTAVYYCARYNAYQIGLDYWGQGTLVTVSS VL: EIVLTQSPGTLSLSPGERATLSCRASQSVSSSYLAWYQQKPGQAPRLLIYGASSRATGIPDRFSGSGSGTDFTLTISRLEPEDFAVYYCQQALGYPHTFGQGTKVEIKR	1.47 nM	634000 MFI	18	3.19 nM	57.9 nM	33.1 nM	2.68 nM	688000 MFI	2060 pg/mL	932 pg/mL	0.67 nM	0.23 nM					
FS22-172-003-AA/FS28-256-023 (bispecific antibody, human IgG1, kappa, L234A L235A, V domains shown, IgG1 mAb^2 with LALA) VH: EVQLLESGGGLVQPGGSLRLSCAASGFTFTQTYMSWVRQAPGKGLEWVSNISPTYSTTNYADSVKGRFTISRDNSKNTLYLQMNSLRAEDTAVYYCARYNAYQIGLDYWGQGTLVTVSS VL: EIVLTQSPGTLSLSPGERATLSCRASQSVSSSYLAWYQQKPGQAPRLLIYGASSRATGIPDRFSGSGSGTDFTLTISRLEPEDFAVYYCQQHNQYPNTFGQGTKVEIKR	1.29 nM	618000 MFI	18	3.09 nM	56.2 nM	44.2 nM	2.13 nM	625000 MFI	1960 pg/mL	975 pg/mL	0.64 nM	0.23 nM					
FS28-256-274 (in CD137 mAb^2 format) (bispecific antibody, V domains shown, Position 55 is IMGT numbering) VH: EVQLLESGGGLVQPGGSLRLSCAASGFTFTHTYMSWVRQAPGKGLEWVSTISPTYSTTNYADSVKGRFTISRDNNKNTLYLQMNSLRAEDTAVYYCARYNAYHAALDYWGQGTLVTVSS VL: EIVLTQSPGTLSLSPGERATLSCRASQSVSSSYLAWYQQKPGQAPRLLIYGASSRATGIPDRFSGSGSGTDFTLTISRLEPEDFAVYYCQQTVPYPYTFGQGTKVEIKR														55.9 nM	19.8 nM	2.8	
FS22-172-003-AA/FS28-256-024 (bispecific antibody, human IgG1, kappa, L234A L235A, V domains shown, IgG1 mAb^2 with LALA) VH: EVQLLESGGGLVQPGGSLRLSCAASGFTFTHTYMSWVRQAPGKGLEWVSNISPTYSTTNYADSVKGRFTISRDNNKNTLYLQMNSLRAEDTAVYYCARYNAYHAALDYWGQGTLVTVSS VL: EIVLTQSPGTLSLSPGERATLSCRASQSVSSSYLAWYQQKPGQAPRLLIYGASSRATGIPDRFSGSGSGTDFTLTISRLEPEDFAVYYCQQALGYPHTFGQGTKVEIKR	3.4 nM	647000 MFI	18	4.74 nM	86.6 nM	57.2 nM	5.24 nM	675000 MFI	2120 pg/mL	1090 pg/mL	1.29 nM	0.61 nM					
20H4.9 (antibody, V domains shown) VH: QVQLQQWGAGLLKPSETLSLTCAVYGGSFSGYYWSWIRQSPEKGLEWIGEINHGGYVTYNPSLESRVTISVDTSKNQFSLKLSSVTAADTAVYYCARDYGPGNYDWYFDLWGRGTLVTVSS VL: EIVLTQSPATLSLSPGERATLSCRASQSVSSYLAWYQQKPGQAPRLLIYDASNRATGIPARFSGSGSGTDFTLTISSLEPEDFAVYYCQQRSNWPPALTFGGGTKVEIKR																	0.5 nM
